Measured values published in patent publication US20250326792A1, “A FORMULATION FOR TREATMENT OF PIGMENTARY DISORDERS” (priority 2022, published 2025).
PHPP = 3-Phenylpyrazolo[3,4-d]pyrimidine (N-terminal cap)

Columns and labels:
[1] = Stability of IS103 API, accelerated (Condition 1, 5±3° C.); assay type: physicochemical
Experimental: The purpose of stability testing is to provide evidence on how the quality of a drug substance or drug product varies with time under the influence of a variety of environmental factors such as temperature, humidity, etc. and to establish a re-test period for the drug substance or a shelf life for the drug product and recommended storage conditions. The study was conducted according to the WHO and schedule-Y guidelines.
The IS103 API is a lyophilized white fluffy powder, and it was filled at sterile condition in glass injection vial which has airlock-rubber capping. This container closure system is same as or simulates the packaging proposed for storage and distribution.
The following test attributes have been selected according to the above said guidelines: • appearance; odour; colour; colour of solution (when IS103 API is soluble in solvent); clarity of solution; degradation and assessment of container closure system.
The studies were conducted under appropriate storage conditions (with appropriate tolerances) that test IS103 API thermal stability and its sensitivity to moisture. The IS103 API is intended for storage for 36 months. Accordingly, long term stability studies were done for 36 months. The details of the storage conditions have been furnished hereunder.

NHEM cells = assay: Cell viability (XTT assay) in NHEM cells; assay type: cell-based, Human; conditions: 1000 μg/ml for about 48 hours
Experimental: (§1) Culture and maintenance of cell lines: B16F10 cells were cultured in RPMI containing 10% fetal bovine serum, 100 units per millilitre (U/mL) penicillin, 0.1 mg/mL streptomycin, and 0.25 microgram per millilitre (μg/mL) amphotericin B at 37 degrees Celsius in a humidified 95% air/5% CO2 incubator. Drug treatment was done 24 hours after seeding. Cells were harvested 48 hours later and melanin content and tyrosinase activity determined in triplicate. […] […]
(§2) B16F10 and NHEM cells were sub-cultured into 96-well culture plates at a density of 1×10^4 cells/well in 100 μL medium and after about 24 hours of incubation, the medium was discarded and replaced with 100 μL of a suitable medium (RPMI for B16F10 and DMEM for NHEM with 1% FBS) for starvation and then treated in the presence or absence of various concentrations of test compound and positive controls (IBMX and α-MSH). […] At the end of the incubation, about 50 μL of XTT test solution prepared by mixing about 5 mL of XTT-labeling reagent and about 100 μL of electron coupling reagent is added to each well and after about 4 hours of incubation at 37° C. and a about 5% CO2 incubator, the absorbance was measured on an ELISA reader at a test wavelength of 490 nm.

Tyrosinase = Tyrosinase activity assay (L-DOPA) in B16F10 cells; assay type: cell-based; conditions: for % increase in tyrosinase activity compared to control / Change in tyrosinase activity: TYROSINASE ACTIVITY table
Experimental: Culture and maintenance of cell lines: B16F10 cells were cultured in RPMI containing 10% fetal bovine serum, 100 units per millilitre (U/mL) penicillin, 0.1 mg/mL streptomycin, and 0.25 microgram per millilitre (μg/mL) amphotericin B at 37 degrees Celsius in a humidified 95% air/5% CO2 incubator. Drug treatment was done 24 hours after seeding. Cells were harvested 48 hours later and melanin content and tyrosinase activity determined in triplicate. NHEM cells were cultured in DMEM containing 10% fetal bovine serum, 100 units per milliliter (U/mL) penicillin, 0.1 mg/mL streptomycin, and 0.25 microgram per millilitre (μg/mL) amphotericin B at 37 degrees Celsius in a humidified 95% air/5% CO2 incubator. Drug treatment was done 24 hours after seeding. Cells were harvested 48 hours later and melanin content and tyrosinase activity determined in triplicate.
IS103 was dissolved in water for injection or DMSO to prepare stock solution of about 50 mg/ml. The stock solution was used for preparation of subsequent dilutions in solvent to achieve working dilutions for treatment ranging 0.1 μg/ml to 1000 μg/ml.
Tyrosinase activity was determined using L-DOPA as a substrate. Briefly, B16F10 and NHEM cells were seeded in a 6-well plate (2×10^4 cells/well) and incubated for overnight. The cells were then treated with or without the test compounds for 46 hours and were washed twice with ice cold PBS and extracted by sonication in 100 μl of 0.1M Tris-HCl buffer (pH 7.2) containing 1% Nonidet P-40, 0.01% SDS, 100 μM phenyl methyl sulfonyl fluoride, and 1 μg/ml aprotinin and then centrifuged at 10,000 g for about 10 minutes at 4° C. The supernatants collected were used for enzyme assay and its protein content was estimated by method of Bradford using BSA as standard. Samples of cell extract supernatant were incubated in duplicate for 1 hour at 37° C. in 1 ml of 0.1M sodium phosphate buffer (pH 7.4) containing 0.1% L-DOPA. The absorbance was then monitored at 450 nm and compared with purified mushroom tyrosinase (Sigma). The standard curve was prepared limiting linearity within the range of experimental value.

[2] = Solubility of synthetic peptide IS103; assay type: physicochemical
B16F10 cells = assay: Cell viability (XTT assay) in B16F10 cells; assay type: cell-based; conditions: 1000 μg/ml for about 48 hours
Experimental: as §1, §2

PHPP-Tyr-Arg-Ser-Arg-Lys-Tyr-Ser-Ser-Trp-Tyr-NH2 ({PHPP}-YRSRKYSSWY-NH2) [IS103]
API calculated on the anhydrous basis ([1]; 5±3° C., 1 M): 99.68%
Appearance white to off white amorphous powder ([1]; 5±3° C., 1 M): White
Related substances (By HPLC) Any Max Impurity ([1]; 5±3° C., 1 M): 0.35%
Related substances (By HPLC) Total Impurity ([1]; 5±3° C., 1 M): 2.23%
Solubility Sparingly soluble in water ([1]; 5±3° C., 1 M): Complies
Water Content (By Karl Fischer-Titrator) ([1]; 5±3° C., 1 M): 4.27% w/w
Internal change in attributes: Appearance ([1]; 5±3° C., 1st month): No change
Internal change in attributes: Clarity of solution ([1]; 5±3° C., 1st month): No change
Internal change in attributes: Color ([1]; 5±3° C., 1st month): No change
Internal change in attributes: Color of solution ([1]; 5±3° C., 1st month): No change
Internal change in attributes: Odor ([1]; 5±3° C., 1st month): No change
Internal change in attributes: Appearance ([1]; 5±3° C., 2nd month): No change
Internal change in attributes: Clarity of solution ([1]; 5±3° C., 2nd month): No change
Internal change in attributes: Color ([1]; 5±3° C., 2nd month): No change
Internal change in attributes: Color of solution ([1]; 5±3° C., 2nd month): No change
Internal change in attributes: Odor ([1]; 5±3° C., 2nd month): No change
API calculated on the anhydrous basis ([1]; 5±3° C., 3 M): 99.14%
Appearance white to off white amorphous powder ([1]; 5±3° C., 3 M): White
Related substances (By HPLC) Any Max Impurity ([1]; 5±3° C., 3 M): 0.40%
Related substances (By HPLC) Total Impurity ([1]; 5±3° C., 3 M): 2.30%
Solubility Sparingly soluble in water ([1]; 5±3° C., 3 M): Complies
Water Content (By Karl Fischer-Titrator) ([1]; 5±3° C., 3 M): 4.29% w/w
Internal change in attributes: Appearance ([1]; 5±3° C., 3rd month): No change
Internal change in attributes: Clarity of solution ([1]; 5±3° C., 3rd month): No change
Internal change in attributes: Color ([1]; 5±3° C., 3rd month): No change
Internal change in attributes: Color of solution ([1]; 5±3° C., 3rd month): No change
Internal change in attributes: Odor ([1]; 5±3° C., 3rd month): No change
API calculated on the anhydrous basis ([1]; 5±3° C., 6 M): 99.00%
Appearance white to off white amorphous powder ([1]; 5±3° C., 6 M): White
Related substances (By HPLC) Any Max Impurity ([1]; 5±3° C., 6 M): 0.49%
Related substances (By HPLC) Total Impurity ([1]; 5±3° C., 6 M): 2.44%
Solubility Sparingly soluble in water ([1]; 5±3° C., 6 M): Complies
Water Content (By Karl Fischer-Titrator) ([1]; 5±3° C., 6 M): 4.87% w/w
Internal change in attributes: Appearance ([1]; 5±3° C., 6th month): No change
Internal change in attributes: Clarity of solution ([1]; 5±3° C., 6th month): No change
Internal change in attributes: Color ([1]; 5±3° C., 6th month): No change
Internal change in attributes: Color of solution ([1]; 5±3° C., 6th month): No change
Internal change in attributes: Odor ([1]; 5±3° C., 6th month): No change
API calculated on the anhydrous basis ([1]; 5±3° C., Initial): 99.73%
Appearance white to off white amorphous powder ([1]; 5±3° C., Initial): White
Related substances (By HPLC) Any Max Impurity ([1]; 5±3° C., Initial): 0.39%
Related substances (By HPLC) Total Impurity ([1]; 5±3° C., Initial): 2.09%
Solubility Sparingly soluble in water ([1]; 5±3° C., Initial): Complies
Water Content (By Karl Fischer-Titrator) ([1]; 5±3° C., Initial): 4.18% w/w
found to be stable for ([1]; accelerated condition, 5±3° C.): 6 months
stable for ([1]; refrigerator (5±3° C.) conditions): 36 months
effect on cell viability (NHEM cells): did not exert any significant effect on cell viability
increase in Tyrosinase activity when compared to control (Tyrosinase; B16F10 CELLS, 250 μg/mL): 55.33%
effect on tyrosinase activity (FIG. 6) (Tyrosinase; B16F10 cells, different concentrations, about 48 hours): increased tyrosinase activity
% increase in tyrosinase activity compared to control (Tyrosinase; B16F10 CELLS, 0.1 μg/mL): 0%
Change in tyrosinase activity (Tyrosinase; B16F10 CELLS, 0.1 μg/mL): 15.0 ± 1.60
% increase in tyrosinase activity compared to control (Tyrosinase; B16F10 CELLS, 1 μg/mL): 3%
Change in tyrosinase activity (Tyrosinase; B16F10 CELLS, 1 μg/mL): 18.0 ± 2.20
% increase in tyrosinase activity compared to control (Tyrosinase; B16F10 CELLS, 10 μg/mL): 10.33%
Change in tyrosinase activity (Tyrosinase; B16F10 CELLS, 10 μg/mL): 25.3 ± 1.20
% increase in tyrosinase activity compared to control (Tyrosinase; B16F10 CELLS, 50 μg/mL): 24%
Change in tyrosinase activity (Tyrosinase; B16F10 CELLS, 50 μg/mL): 39.0 ± 2.20
% increase in tyrosinase activity compared to control (Tyrosinase; B16F10 CELLS, 100 μg/mL): 42.33%
Change in tyrosinase activity (Tyrosinase; B16F10 CELLS, 100 μg/mL): 57.3 ± 4.20
% increase in tyrosinase activity compared to control (Tyrosinase; B16F10 CELLS, 250 μg/mL): 55.33%
Change in tyrosinase activity (Tyrosinase; B16F10 CELLS, 250 μg/mL): 70.3 ± 1.70
% increase in tyrosinase activity compared to control (Tyrosinase; B16F10 CELLS, 500 μg/mL): 62%
Change in tyrosinase activity (Tyrosinase; B16F10 CELLS, 500 μg/mL): 77.0 ± 3.00
% increase in tyrosinase activity compared to control (Tyrosinase; B16F10 CELLS, 1000 μg/mL): 60.33%
Change in tyrosinase activity (Tyrosinase; B16F10 CELLS, 1000 μg/mL): 75.3 ± 2.50
Solubility [2]: soluble in water
effect on cell viability (B16F10 cells): did not exert any significant effect on cell viability
